Measured values from PMC10842940, “Establishment of dsDNA-dsDNA interactions by the condensin complex” (Molecular cell, 2023).

Legend:
[1] = target: T1, Cut3^Smc4 (fission yeast condensin SMC subunit) (S. pombe, UniProt P41004 1-1324); test: cross-linking; sulfo-SDA cross-link mass spectrometry (CLMS) of the purified five-subunit condensin complex with equimolar 124 bp linear dsDNA and 0.5 mM ADP·BeF3 (DNA-gripping state); CL buffer, 30°C 30 min, UV 365 nm on ice; 1% FDR at residue-pair level; details: both partners purified
T1 construct: Cut3 (Smc4), S. pombe condensin SMC subunit; cDNA cloned into an S. cerevisiae expression vector; source: S. cerevisiae (w303, pep4 deleted), co-overexpressed with the other four condensin subunits from GAL1-10 promoters; in cell extract, and purified as the complex (IgG-agarose, 3C protease elution, heparin, Superose 6)
T1 sequence (looked up): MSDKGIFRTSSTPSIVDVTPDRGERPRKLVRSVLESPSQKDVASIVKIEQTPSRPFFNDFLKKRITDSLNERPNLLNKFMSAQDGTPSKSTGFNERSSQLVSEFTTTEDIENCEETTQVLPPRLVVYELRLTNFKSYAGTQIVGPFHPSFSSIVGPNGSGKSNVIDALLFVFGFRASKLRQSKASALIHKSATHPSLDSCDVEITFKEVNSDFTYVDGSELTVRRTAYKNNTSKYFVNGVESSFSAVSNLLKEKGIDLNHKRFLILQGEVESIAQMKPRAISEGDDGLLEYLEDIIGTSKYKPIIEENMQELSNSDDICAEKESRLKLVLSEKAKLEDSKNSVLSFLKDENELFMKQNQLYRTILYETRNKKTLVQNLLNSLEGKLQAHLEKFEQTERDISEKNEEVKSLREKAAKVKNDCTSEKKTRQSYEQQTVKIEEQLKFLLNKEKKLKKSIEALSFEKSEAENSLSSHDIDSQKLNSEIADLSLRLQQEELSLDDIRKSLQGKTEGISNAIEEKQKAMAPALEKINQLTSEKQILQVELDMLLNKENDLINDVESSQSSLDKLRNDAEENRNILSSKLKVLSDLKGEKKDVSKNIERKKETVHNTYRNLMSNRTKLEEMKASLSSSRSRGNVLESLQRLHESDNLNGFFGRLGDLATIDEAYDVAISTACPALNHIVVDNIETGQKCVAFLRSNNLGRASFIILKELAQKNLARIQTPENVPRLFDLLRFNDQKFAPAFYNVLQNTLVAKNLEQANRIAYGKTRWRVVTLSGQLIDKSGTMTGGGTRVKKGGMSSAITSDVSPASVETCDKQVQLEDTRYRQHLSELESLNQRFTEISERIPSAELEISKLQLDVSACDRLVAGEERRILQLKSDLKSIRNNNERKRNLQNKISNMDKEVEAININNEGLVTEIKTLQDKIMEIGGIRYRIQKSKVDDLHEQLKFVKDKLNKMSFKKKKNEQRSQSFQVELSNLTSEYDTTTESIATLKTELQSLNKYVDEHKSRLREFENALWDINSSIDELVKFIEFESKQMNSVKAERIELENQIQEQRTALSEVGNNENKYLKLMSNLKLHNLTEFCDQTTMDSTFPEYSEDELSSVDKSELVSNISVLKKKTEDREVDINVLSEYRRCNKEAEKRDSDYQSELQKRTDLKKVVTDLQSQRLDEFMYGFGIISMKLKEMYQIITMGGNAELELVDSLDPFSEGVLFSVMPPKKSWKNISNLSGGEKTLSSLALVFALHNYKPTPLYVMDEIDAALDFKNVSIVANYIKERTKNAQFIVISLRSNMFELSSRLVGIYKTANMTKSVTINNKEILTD

[2] = target: T2, Cut14^Smc2 (fission yeast condensin SMC subunit) (S. pombe, UniProt P41003 1-1172); test: as above; details: both partners purified
T2 construct: Cut14 (Smc2), S. pombe condensin SMC subunit; cDNA cloned into an S. cerevisiae expression vector; The Pk tag is used for the condensin immunoprecipitation in the DNA assays; also called Cut14-3xPk; source: S. cerevisiae (w303, pep4 deleted), co-overexpressed with the other four condensin subunits from GAL1-10 promoters; in cell extract, and purified as the complex (IgG-agarose, 3C protease …)
T2 sequence (looked up): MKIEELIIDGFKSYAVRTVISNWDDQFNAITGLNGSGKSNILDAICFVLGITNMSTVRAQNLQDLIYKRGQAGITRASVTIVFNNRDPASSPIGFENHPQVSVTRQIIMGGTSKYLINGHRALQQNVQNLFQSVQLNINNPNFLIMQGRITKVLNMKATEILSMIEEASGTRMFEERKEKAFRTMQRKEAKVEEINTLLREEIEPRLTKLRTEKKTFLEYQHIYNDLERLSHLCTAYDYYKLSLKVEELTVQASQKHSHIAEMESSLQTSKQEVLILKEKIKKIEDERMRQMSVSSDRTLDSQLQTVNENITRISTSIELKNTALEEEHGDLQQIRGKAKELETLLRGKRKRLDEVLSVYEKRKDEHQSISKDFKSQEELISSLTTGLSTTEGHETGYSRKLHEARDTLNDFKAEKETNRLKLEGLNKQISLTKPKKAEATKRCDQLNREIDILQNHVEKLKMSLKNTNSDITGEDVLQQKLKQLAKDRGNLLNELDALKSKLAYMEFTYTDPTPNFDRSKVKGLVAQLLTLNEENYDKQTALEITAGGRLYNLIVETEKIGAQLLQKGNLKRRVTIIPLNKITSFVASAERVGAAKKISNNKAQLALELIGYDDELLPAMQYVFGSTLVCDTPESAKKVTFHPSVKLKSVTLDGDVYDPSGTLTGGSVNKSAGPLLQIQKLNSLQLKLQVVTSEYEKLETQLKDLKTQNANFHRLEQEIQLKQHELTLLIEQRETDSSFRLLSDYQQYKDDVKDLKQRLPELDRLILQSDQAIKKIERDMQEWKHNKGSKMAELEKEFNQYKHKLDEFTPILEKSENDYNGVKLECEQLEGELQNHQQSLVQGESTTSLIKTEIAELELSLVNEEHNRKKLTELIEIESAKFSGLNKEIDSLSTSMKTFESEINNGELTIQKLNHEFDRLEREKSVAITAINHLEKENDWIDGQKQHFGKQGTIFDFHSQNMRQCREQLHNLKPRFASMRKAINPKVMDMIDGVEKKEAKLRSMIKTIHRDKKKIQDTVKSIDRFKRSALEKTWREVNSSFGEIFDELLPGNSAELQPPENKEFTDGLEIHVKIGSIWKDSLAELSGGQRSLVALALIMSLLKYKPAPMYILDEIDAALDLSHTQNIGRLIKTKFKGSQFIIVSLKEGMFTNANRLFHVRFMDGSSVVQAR

binding result [1]: binds
binding result [2]: binds
B1: Cnd1^Ycs4 (fission yeast condensin HEAT-repeat subunit) (natural protein, S. pombe, UniProt O94679 1-1158, looked up)
chain: MSLDLLSRLKKYIHDEENSDLDSIYAECENAGLTAVVNDVIDTLLLGTSSCFDEDCLEKLFAICSHFADLSSSVRNKVYDLLTSNISSESAILEDMISANATDFTVPQTNLETTGIAFQLTVNSLSSSNQLSVIRSSTNTVKGRKKNPTTNSNWNGISHVNALLDAIITLFQKKLSRVWTTSSERDMFLSLFLKPIYTLMESEINIKNASFRSRLFNIIGLAVQFHNHTTAAETNIIQNLQYFEHLSEYAADLVHIVTVQFNSVTLAEGIIRTLCSLEFNDNDVKGPKQVALFLVRLSSLIPNLCLKQLTQLVKLLDSESYTLRCAIIEVLANVVIDQIHDEAQNEMSESVPATVQSLMDLLSERLLDISPYCRTKVLHVFIKIFDLPIKYPRKRQEIAELVIRCLQDRSSHVRRNAIKLFSKLLTTHPFSVMHNGLLTRNIWEKGLSIIEEQLNSLQPKQQEKVVDSELEVDENLLEDATMIQDDESHEGESHLENSLSEYVDSVPAEEIVKVNLTKRFYLEALQYIDIVEAGAKIISQLLFAKNKSEVIESMDFFVFCNSFGISSSKLYIKKMIHLIWVKGTSDEGNNIQNHVLSCYKTLFFEPPPNSGTNEAANYIARNLISLTYDASLAELTSLEQMLCILMKDGYFSHLVITKLWQVYSYQKKDISRTQRRGSIIVIGMLALGNTDVVMQGLDHLIQIGLGPPGLEDLVLARYTCIAIKRIGKDASGSSNINFPNSHTLCQKLCMLLLRPSFSEEWFGLEEQAIEAIYAVAKHPDELCTNIILLLTKQLFKPSNHENTTSNDDHAMDEDLDDSPEEETLKDEEEIGIRLAHLIFLVGHVAIKQLVYIEYCEAEFKRRKADAERLAVQNSNNPINGQETSEYDLITGTSEDDFSEAMTFIRERELLYGENSLLSRFAPLVVELCSNHKSHNNQSLLLAASLTLSKFMCLSNNFCMEHLPLLITILEKCDNPIIRNNLVIGLADLTVCFNHFIDEISEYLYRRLMDEESSVKKTCFMTLAFLILAGQIKVKGQLGIMARSLEDEDARISDLARMFFTDFAAKDNSVYNNFIDIFSVLSRSAEEQDEDDAKFKRIIRFLTSFIEKERHTKQLAERLAARLDRCKTQRQWDHVVYALSLLPHKADNIQKLIDDGYHE
notes: Cnd1 (Ycs4), S. pombe condensin HEAT-repeat subunit; cDNA cloned into an S. cerevisiae expression vector; source: S. cerevisiae (w303, pep4 deleted), co-overexpressed with the other four condensin subunits from GAL1-10 promoters; in cell extract, and purified as the complex (IgG-agarose, 3C protease elution, heparin, Superose 6)
